Measured values published in patent US20180011114A1 (PUBLIC UNIVERSITY CORPORATION NARA MEDICAL UNIVERSITY, published 2018).

B1: AQ8 (antibody, V domains shown)
VH: EVNLVESGGGLVQPGGSMSLSCAASGFTFTDYYMSWVRQPPGKALEWLALIRNKANGYTTEYSASVKGRFTISRDNSQSILYLQMNALRAEDSATYYCARDSYYSYDGYAMDYWGQGTSVTVSS
VL: DIQMTQSPASLAASVGETITITCQASENIYFSLAWYQQKQGKSPQLLIYNTDSLKDGVPSRFSGSGSGTQYSMKINSMQPEDTATYFCRQSYDFPWTFGGGTKLEIK
notes: Mouse antibody from a hybridoma (culture supernatant in the ELISA); also called AQ8 antibody
B2: AJ540 (antibody, V domains shown)
VH: QIQLVQSGPELKKPGESVKISCKASGYTFTDYAMHWVKQVPGKGLKWMGWINTYTGKPTYADDFKGRFVFSLEASASTANLQISNLKNEDTANVFCAREGGGYYWYFDFWGPGTMVTVSS
VL: DIVMTQSPTSMSISVGDRVTMNCKANQNVDFNVDWYQQKTGQSPKLLIYKASNRYTGVPDRFTGSGSGTDFTFTISNMQAEDLAVYYCMQSNSFPLTFGSGTNLEIK
notes: Rat antibody from a hybridoma (culture supernatant in the ELISA); also called AJ540 antibody

Experiments:
[1] = molecular target: T1, anti-FX-arm of ACE910; assay: ELISA, hybridoma culture supernatant
T1 construct: also called anti-FX side Fab of ACE910; anti-FX-F(ab')2
T1 sequence (VH, as listed by the source, chain 1 of 2): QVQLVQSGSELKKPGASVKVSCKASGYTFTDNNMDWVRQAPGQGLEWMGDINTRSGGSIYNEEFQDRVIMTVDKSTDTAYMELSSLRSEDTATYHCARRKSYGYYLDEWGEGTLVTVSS
T1 sequence (VL, as listed by the source, chain 2 of 2): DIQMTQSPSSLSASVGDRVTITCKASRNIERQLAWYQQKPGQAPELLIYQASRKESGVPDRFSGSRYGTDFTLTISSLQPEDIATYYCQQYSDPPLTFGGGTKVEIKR
Experimental: (§1) Mice and rats were immunized with anti-FIXa-F(ab′)2 or anti-FX-F(ab′)2. Cells obtained from the spleen removed from the mice or rats or from rat lymph nodes were subjected to cell fusion with mouse myeloma cells by following general methods to produce the hybridomas. The culture supernatants of the hybridomas were evaluated by ELISA which detects the binding of ACE910 to the anti-FIXa-arm or the anti-FX-arm, and ultimately, mouse antibodies, AQ8 and AQ1, and rat antibody, AQ512, which bind only to the anti-FIXa-arm but not to the anti-FX-arm of ACE910, and rat antibodies, AJ540, AJ114, AJ521, AJ522, and AJ541, which bind only to the anti-FX-arm but not to the anti-FIXa-arm of ACE910 were selected. In addition, the nucleotide sequences of the variable regions of the AQ8 antibody or the AJ540 antibody were analyzed. The nucleotide sequences of the variable regions of AQ8 and AJ540, and amino acid sequences predicted therefrom were analyzed using GENETYX Ver.9 (GENETYX CORPORATION).

[2] = molecular target: T2, anti-FIXa-arm of ACE910; assay: ELISA, hybridoma culture supernatant
T2 construct: Q499/J327; also called anti-FIXa side Fab of ACE910; anti-FIXa-F(ab')2
T2 sequence (VH, as listed by the source, chain 1 of 2): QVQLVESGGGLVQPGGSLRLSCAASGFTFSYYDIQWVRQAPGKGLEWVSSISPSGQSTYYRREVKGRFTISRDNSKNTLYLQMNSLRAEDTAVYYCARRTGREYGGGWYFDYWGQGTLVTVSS
T2 sequence (VL, as listed by the source, chain 2 of 2): as the sequence (VL, as listed by the source, chain 2 of 2) above
Experimental: as §1

| Binder | binding result [1] | binding result [2] |
| --- | --- | --- |
| B1 | no binding | – |
| B2 | – | no binding |
